Data taken from paper PMC9195068, “The action of Con-ikot-ikot toxin on single AMPA-type glutamate receptors” (The Journal of General Physiology, 2022).

Biological target: the molecule itself
Assay: non-reducing SDS-PAGE

B1: Con-ikot-ikot toxin (natural protein)
chain: SGPADCCRMKECCTDRVNECLQRYSGREDKFVSFCYQEATVTCGSFNEIVGCCYGYQMCMIRVVKPNSLSGAHEACKTVSCGNPCA
notes: also called CII; CII toxin
With B1 the “stoichiometry N” value was 2.
